Experimental findings from patent US20250312499A1, “KISSPEPTIN RECEPTOR (KISS1R) TARGETED THERAPEUTICS AND USES THEREOF” (priority 2024, published 2025) are described below.

Numbered stars: 1 amine (or outer) side, 2 acyl side, 3 side chain; on linkers, the order of the positions; unused ones are H or OH. Square brackets hold non-standard residues; d marks the D form. * marks the point of attachment. X2 = 4‑amino‑1‑((3-fluoro-4-methylbenzyl)glycyl)piperidine‑4‑carboxylic acid, Cc1ccc(CN(CC(=O)N2CCC(N[*:1])(C(=O)[*:2])CC2)[*:3])cc1F; X7 = 4‑amino‑1‑(N-methylcarbamimidoyl)piperidine‑4‑carboxylic acid, CNC(=N)N1CCC(N[*:1])(C(=O)[*:2])CC1; DOTA = O=C(O)CN1CCN(CC(=O)O)CCN(CC(=O)*)CCN(CC(=O)O)CC1; Ala(9-anthryl) = N[C@@H](Cc1c2ccccc2cc2ccccc12)C(=O)O; Api(1-amidino) = N=C(N)N1CCC(N)(C(=O)O)CC1; HO(CH2CH2O)2CH2CH2CO = O=C(CCOCCOCCO)*; d2Nal = N[C@H](Cc1ccc2ccccc2c1)C(=O)O; 4Pal = N[C@@H](Cc1ccncc1)C(=O)O; Nle = CCCC[C@H](N)C(=O)O; Ahx = NCCCCCC(=O)O; azaGly = NNC(=O)O; βAla = NCCC(=O)O

The target of experiment [1] is human kisspeptin receptor (KISS1R) (human) (UniProt Q969F8). Put plainly: radioligand competition, hKISS1R membranes; legend: C is >100 nM. Background: In a radioligand displacement assay an active substance lowers the binding of a labelled ligand.
human kisspeptin receptor (KISS1R) (human), sequence (Q969F8 whole entry): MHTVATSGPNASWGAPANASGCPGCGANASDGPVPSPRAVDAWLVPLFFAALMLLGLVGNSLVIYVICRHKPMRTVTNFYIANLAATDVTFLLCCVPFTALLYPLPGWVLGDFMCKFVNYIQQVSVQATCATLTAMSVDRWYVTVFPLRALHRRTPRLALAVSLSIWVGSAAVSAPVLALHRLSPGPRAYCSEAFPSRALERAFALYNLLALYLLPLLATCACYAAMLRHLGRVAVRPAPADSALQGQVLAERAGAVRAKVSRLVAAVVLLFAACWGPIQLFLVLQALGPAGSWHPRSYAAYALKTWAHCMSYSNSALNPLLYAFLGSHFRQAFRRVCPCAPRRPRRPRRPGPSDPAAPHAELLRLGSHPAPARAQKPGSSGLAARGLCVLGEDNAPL
For experiment [2], the target named is human kisspeptin receptor (KISS1R) (human), Q969F8. The description is as above.
human kisspeptin receptor (KISS1R) (human), Q969F8, sequence (Q969F8 whole entry): as above

In general, Ki refers to a dissociation constant, usually derived from enzyme kinetics or from competition with a known ligand. A low value points to tighter binding. Take {DOTA-Ahx}-[dY][d2Nal]NTF[azaGly]L[4‑amino‑1‑((pyridin-4-ylmethyl)glycyl)piperidine‑4‑carboxylic acid][dW]-NH2 [Compound 370]: in experiment [1], the Ki was above 100 nM.

B1: Compound 3 (peptide)
peptide: {DOTA-Ahx}-FGL[Api(1-amidino)]W-NH2
SMILES: CC(C)C[C@H](NC(=O)CNC(=O)[C@H](Cc1ccccc1)NC(=O)CCCCCNC(=O)CN1CCN(CC(=O)O)CCN(CC(=O)O)CCN(CC(=O)O)CC1)C(=O)NC1(C(=O)N[C@@H](Cc2c[nH]c3ccccc23)C(N)=O)CCN(C(=N)N)CC1
B1 had a Ki in experiment [2] above 100 nM.

B2: Compound 49 (peptide)
peptide: {DOTA}-F[azaGly]L[X2]W-NH2
SMILES: Cc1ccc(CNCC(=O)N2CCC(NC(=O)[C@H](CC(C)C)NC(=O)NNC(=O)[C@H](Cc3ccccc3)NC(=O)CN3CCN(CC(=O)O)CCN(CC(=O)O)CCN(CC(=O)O)CC3)(C(=O)N[C@@H](Cc3c[nH]c4ccccc34)C(N)=O)CC2)cc1F
B2 returned a Ki in experiment [2] above 100 nM.

With {DOTA-Ahx}-[dY][d2Nal]NTF[azaGly]L[4‑amino‑1‑(((tetrahydro-2H-thiopyran-4-yl)methyl)glycyl)piperidine‑4‑carboxylic acid][dW]-NH2 [Compound 375], the Ki in experiment [1] was above 100 nM.

B3: Compound 15 (peptide)
peptide: {DOTA}-[βAla][dN][dN][dE][dE][dN]F[azaGly]L[X2]W-NH2
SMILES: Cc1ccc(CNCC(=O)N2CCC(NC(=O)[C@H](CC(C)C)NC(=O)NNC(=O)[C@H](Cc3ccccc3)NC(=O)[C@@H](CC(N)=O)NC(=O)[C@@H](CCC(=O)O)NC(=O)[C@@H](CCC(=O)O)NC(=O)[C@@H](CC(N)=O)NC(=O)[C@@H](CC(N)=O)NC(=O)CCNC(=O)CN3CCN(CC(=O)O)CCN(CC(=O)O)CCN(CC(=O)O)CC3)(C(=O)N[C@@H](Cc3c[nH]c4ccccc34)C(N)=O)CC2)cc1F
B3: in experiment [2], the Ki was above 100 nM.

B4: Compound 252 (peptide)
peptide: {HO(CH2CH2O)2CH2CH2CO}-K(DOTA)ETF[azaGly]L[X2][4Pal]-NH2
SMILES: Cc1ccc(CNCC(=O)N2CCC(NC(=O)[C@H](CC(C)C)NC(=O)NNC(=O)[C@H](Cc3ccccc3)NC(=O)[C@@H](NC(=O)[C@H](CCC(=O)O)NC(=O)[C@H](CCCCNC(=O)CN3CCN(CC(=O)O)CCN(CC(=O)O)CCN(CC(=O)O)CC3)NC(=O)CCOCCOCCO)[C@@H](C)O)(C(=O)N[C@@H](Cc3ccncc3)C(N)=O)CC2)cc1F
For the molecule B4, the Ki in experiment [2] was above 100 nM.

B5: Compound 319 (peptide)
peptide: {DOTA-Ahx}-[dY][d2Nal]NTF[azaGly]L[X7][dW]-NH2
SMILES: CNC(=N)N1CCC(NC(=O)[C@H](CC(C)C)NC(=O)NNC(=O)[C@H](Cc2ccccc2)NC(=O)[C@@H](NC(=O)[C@H](CC(N)=O)NC(=O)[C@@H](Cc2ccc3ccccc3c2)NC(=O)[C@@H](Cc2ccc(O)cc2)NC(=O)CCCCCNC(=O)CN2CCN(CC(=O)O)CCN(CC(=O)O)CCN(CC(=O)O)CC2)[C@@H](C)O)(C(=O)N[C@H](Cc2c[nH]c3ccccc23)C(N)=O)CC1
B5 displayed a Ki in experiment [1] above 100 nM.

B6: Compound 123 (peptide)
peptide: {DOTA}-[dY][Ala(9-anthryl)]NTF[azaGly][Nle][Api(1-amidino)][4Pal]-NH2
SMILES: CCCC[C@H](NC(=O)NNC(=O)[C@H](Cc1ccccc1)NC(=O)[C@@H](NC(=O)[C@H](CC(N)=O)NC(=O)[C@H](Cc1c2ccccc2cc2ccccc12)NC(=O)[C@@H](Cc1ccc(O)cc1)NC(=O)CN1CCN(CC(=O)O)CCN(CC(=O)O)CCN(CC(=O)O)CC1)[C@@H](C)O)C(=O)NC1(C(=O)N[C@@H](Cc2ccncc2)C(N)=O)CCN(C(=N)N)CC1
B6 had a Ki in experiment [1] above 100 nM.

B7: Compound 16 (peptide)
peptide: {DOTA}-[βAla][dN][dN][dK][dE][dN]F[azaGly]L[X2]W-NH2
SMILES: Cc1ccc(CNCC(=O)N2CCC(NC(=O)[C@H](CC(C)C)NC(=O)NNC(=O)[C@H](Cc3ccccc3)NC(=O)[C@@H](CC(N)=O)NC(=O)[C@@H](CCC(=O)O)NC(=O)[C@@H](CCCCN)NC(=O)[C@@H](CC(N)=O)NC(=O)[C@@H](CC(N)=O)NC(=O)CCNC(=O)CN3CCN(CC(=O)O)CCN(CC(=O)O)CCN(CC(=O)O)CC3)(C(=O)N[C@@H](Cc3c[nH]c4ccccc34)C(N)=O)CC2)cc1F
On to B7, for which the Ki in experiment [2] is above 100 nM.
